Values belong to the molecule of their own block, whether it stands above or below them.
What was measured:
[1] = target: Facklamia ignava NrdB∆Grx (lacking the Grx domain) (Facklamia ignava); experiment: GEMMA
SEC [2] = target: the molecule itself; experiment: SEC
GEMMA = target: the molecule itself; experiment: GEMMA
SEC [3] = target: the molecule itself; experiment: SEC; remark: listed apart in the source

stoichiometry N [1]: 4
Molecule: Facklamia ignava NrdB∆Grx (lacking the Grx domain) (domain or fragment)

B1: Facklamia ignava NrdB (Grx::ATP-cone::NrdB fusion protein), wild type (natural protein, UniProt K1LAT4 1-496, looked up)
chain: MTQVQVYSKKVCPWCTRLKDWMDKNNIDYEEIDIEVHPEAREYLHSLGLKTVPQVFIDGVHRPHEPLYSNLLHYIHGTSKIPQHVTKRNGDRVDFDPTKIEIAIQKANNETHELNDMEINTVTQKVVEKIDIDPIHVEEIQDLVETELMLQSFPRTAKAYILYRAEQTKARQRDIFKPRKNLKPYEYPELESYKEAIQHSYWLHTEYNYTSDIQDYKINVEPHERTAIRNAMLAISQVEVSVKTFWAKLYDRLPKPELANVGMTFAESEVRHSDAYSHLLELLGLNEIFEEIEQIPALNQRVDYLNSHIKYSQTGSNRDYTISILLFSAFIEHISLFSQFLIIMAFNKQKNLFSGISNVIEATSKEEQLHGEFGIDLINTIKAENPDWFDDELKEEIYTLVKQAYESEKDVLDWIYEDGEIDFMPTQTVLEFIKNRLNNSLEAIGLERIFETDLAEVEKTLWFDEEIVSTKHVDFFAKRSVNYTKRSQSMTADDLF
stoichiometry N (SEC [2]): 4
stoichiometry N (GEMMA): 2

B2: Facklamia ignava NrdA (natural protein, UniProt K1MC37 1-567, looked up)
chain: MTAQLKNREYEPFYWLTEDSQTFLERGYLREGQDAHSRLREIADRAEEILGIDGFSDKFYTYLGRGYYSLSTPVWTNFGSNRGFPISCFGSTPDDNMASILYTAAEIGMMSKYGGGTSGFFGHLRPRGAAITNNGYSSGAVHFMKLFEQMTDTVSQGSSRRGRFAPYLPIDHPDIDEFLEIGVEGNDIQDLNHAVTVPDDWMREMIQGDREKRATWAKVIQRRVEMGYPYILFTDTINNNKPEWYHDYPITHSNLCSEIMLPDNDHWSFVCNLSSMNVLHYNEWKDTDAVETMIYFLDAVMSEFIEKLEKLRDSDQFEYREAFHFMERAYNFAVENRALGLGVLGWHSLLQSNLIAFESEEASYLNEEIHRTIQERAEKASCELAELFGEPLILKGTGRRNTTTMAIAPTTSSAFIIGQVSQSIEPLFSNYYVKDMSKIKTTIRNRYLVELLEEKGRNTPDVWESIKNHDGSVLHLDFLSDHEKNVFKTFAEINQYEIINQAAVRQRYIDQSQSLNIMINPATTTAKEMNQLYLYAWESGIKSLYYQHSTSAAQAFYRSSVCLACEA
stoichiometry N (SEC [3]): 2

From doi:10.1101/373563 (bioRxiv, 2018)
